Assay results reported in patent publication US20240287163A1 (Chugai, published 2024).

How the values were obtained:
Assay in all cases: SPR (Biacore T200), antibody captured on protein L, FcγR injected
[1] = molecular target: T1, cynomolgus Fc gamma receptor IIa3 (cynomolgus monkey)
T1 construct: also called cyFcγRIIa3
T1 chain: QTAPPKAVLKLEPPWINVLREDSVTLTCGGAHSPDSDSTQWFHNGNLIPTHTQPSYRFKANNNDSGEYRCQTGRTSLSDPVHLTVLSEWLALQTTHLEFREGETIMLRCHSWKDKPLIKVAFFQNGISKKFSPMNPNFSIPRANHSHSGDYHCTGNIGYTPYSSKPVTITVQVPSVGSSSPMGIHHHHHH
Protocol: (§1) The binding property of each sample to FcγRs at pH7.4 was determined at 25° C. using BIACORE® T200 instrument (Cytiva). First, protein L (BioVision) was immobilized onto all of the flow cells of a CM4 sensor chip using Amine Coupling Kit, type2 (Cytiva). 50 mM phosphate buffer (pH7.4) containing 150 mM NaCl, 0.05% Tween® 20 was used as the running buffer, and antibodies with the binding response of which were prepared to 500 RU or 2000 RU were captured on the sensor surface. Human and monkey FcγRs diluted with the running buffer were injected thereto and the amount bound with the antibodies was measured. hFcγRIa and cyFcγRIa were diluted to 8 nM, and the rest were diluted to 1000 nM. The sensor surface was regenerated every cycle, using 10 mM glycine hydrochloride solution, pH1.5 (prepared in-house).

[2] = molecular target: T2, cynomolgus Fc gamma receptor IIa2 (cynomolgus monkey)
T2 construct: also called cyFcγRIIa2
T2 chain: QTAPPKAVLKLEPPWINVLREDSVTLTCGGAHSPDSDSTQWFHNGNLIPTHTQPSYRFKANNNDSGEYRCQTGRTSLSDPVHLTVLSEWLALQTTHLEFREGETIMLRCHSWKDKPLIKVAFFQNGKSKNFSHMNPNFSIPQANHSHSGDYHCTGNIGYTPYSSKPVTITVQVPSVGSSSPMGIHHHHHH
Protocol: as §1

[3] = molecular target: T3, cynomolgus Fc gamma receptor IIb (cynomolgus monkey)
T3 construct: also called cyFcγRIIb
T3 chain: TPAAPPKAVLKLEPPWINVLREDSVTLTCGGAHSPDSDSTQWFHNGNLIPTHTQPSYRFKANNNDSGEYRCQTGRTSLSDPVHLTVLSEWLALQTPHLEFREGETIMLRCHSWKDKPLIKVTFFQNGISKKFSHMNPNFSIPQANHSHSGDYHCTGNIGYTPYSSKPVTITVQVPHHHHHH
Protocol: as §1

[4] = molecular target: T4, cynomolgus Fc gamma receptor IIIa (R) (cynomolgus monkey, UniProt Q8SPW2 17-208)
T4 construct: also called cyFcγRIIIa(R)
T4 sequence (Q8SPW2 other isoform, or with tags, fused parts or gaps): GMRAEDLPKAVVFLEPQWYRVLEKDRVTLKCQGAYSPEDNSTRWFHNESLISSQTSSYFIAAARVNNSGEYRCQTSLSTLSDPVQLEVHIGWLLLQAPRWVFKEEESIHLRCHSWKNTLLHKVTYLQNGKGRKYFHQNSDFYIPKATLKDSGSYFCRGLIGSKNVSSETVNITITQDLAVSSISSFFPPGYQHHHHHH
Protocol: as §1

[5] = molecular target: T5, cynomolgus Fc gamma receptor Ia (cynomolgus monkey, UniProt P12314 16-288 (human entry))
T5 construct: also called cyFcγRIa
T5 chain: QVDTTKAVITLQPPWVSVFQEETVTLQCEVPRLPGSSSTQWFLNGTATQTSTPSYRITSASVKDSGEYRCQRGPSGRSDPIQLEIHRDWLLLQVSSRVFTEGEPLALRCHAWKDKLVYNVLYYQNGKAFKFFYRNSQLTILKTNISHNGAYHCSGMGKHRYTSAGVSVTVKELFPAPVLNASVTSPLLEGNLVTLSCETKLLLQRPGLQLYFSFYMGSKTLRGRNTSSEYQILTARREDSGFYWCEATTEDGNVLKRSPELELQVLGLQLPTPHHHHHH
Protocol: as §1

[6] = molecular target: T6, cynomolgus Fc gamma receptor IIa1 (cynomolgus monkey)
T6 construct: also called cyFcγRIIa1
T6 chain: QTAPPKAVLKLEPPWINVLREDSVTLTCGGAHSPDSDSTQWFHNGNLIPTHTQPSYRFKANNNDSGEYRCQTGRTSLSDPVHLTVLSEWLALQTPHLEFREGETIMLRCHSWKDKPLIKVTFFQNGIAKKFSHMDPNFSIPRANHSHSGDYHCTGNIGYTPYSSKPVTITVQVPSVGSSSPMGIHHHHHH
Protocol: as §1

[7] = molecular target: T7, cynomolgus Fc gamma receptor IIIa (S) (cynomolgus monkey, UniProt Q8SPW2 21-206 at identity 1.00))
T7 construct: also called cyFcγRIIIa(S)
T7 chain: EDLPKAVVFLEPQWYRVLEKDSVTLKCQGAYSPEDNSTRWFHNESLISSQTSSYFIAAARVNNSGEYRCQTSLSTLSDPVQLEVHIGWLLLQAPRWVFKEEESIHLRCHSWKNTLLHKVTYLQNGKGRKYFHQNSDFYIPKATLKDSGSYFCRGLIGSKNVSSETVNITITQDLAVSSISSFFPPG
Protocol: as §1

binding result [1]: no binding (tested: 1000 nM)
binding result [2]: no binding (tested: 1000 nM)
binding result [3]: no binding (tested: 1000 nM)
binding result [4]: no binding (tested: 1000 nM)
binding result [5]: no binding (tested: 8 nM)
binding result [6]: no binding (tested: 1000 nM)
binding result [7]: no binding (tested: 1000 nM)
B1: COS0637pHv2-FcgSil (antibody)
heavy: QVQLVESGGGVVQPGRSLRLSCAASGFRFSAYAMNWIRQPPGKGLEWIGLIYGKGSTFYASWAKERVTISVDTSKNQFSLKLSSVTAADTAVYYCARGRSVNYNSDFHLWGQGTLVTVSSASTKGPSVFPLAPSSKSTSGGTAALGCLVKDYFPEPVTVSWNSGALTSGVHTFPAVLQSSGLYSLSSVVTVPSSSLGTQTYICNVNHKPSNTKVDKRVEPKSCDKTHTCPPCPAPELRRGPSVFLFPPKPKDTLMISRTPEVTCVVVDVSDEDPEVKFNWYVDGVEVHNAKTKPREELYNSTYRVVSVLTVLHRDWLNGKEYKCKVSNTALPKPIEKTISKAKGQRREPQVYTLPPSREEMTKNQVSLTCLVKGFYPSDIAVEWESNGQPENNYKTTPPVLDSDGSFFLYSKLTVDKSRWQQGNVFSCSVLHEALHAHTTRKELSLSP
light: DIQMTQSPSSLSASVGDRVTITCQASQSLHDKKNLAWYQQKPGQPPKLLIYGASTLESGVPSRFSGSGSGTDFTLTISSLQPEDFATYYCQGEFSCSSADCNTFGQGTKVEIKRTVAAPSVFIFPPSDEQLKSGTASVVCLLNNFYPREAKVQWKVDNALQSGNSQESVTEQDSKDSTYSLSSTLTLSKADYEKHKVYACEVTHQGLSSPVTKSFNRGEC
notes: FcγR-silenced constant region FcgSil
